Data reported in paper PMC6406459, “Hyperoxidation of Peroxiredoxin 6 Induces Alteration from Dimeric to Oligomeric State” (Antioxidants, 2019).

Target: the molecule itself
Test: native gel or EMSA; native PAGE, continuous 7.5% polyacrylamide gel, non-reducing and non-denaturing; samples in 50 mM Tris-HCl, 100 mM NaCl pH 7.4; running buffer 30 mM beta-alanine, 20 mM lactic acid pH 3.8, 180 V, 2 h, reverse polarity; markers bovine albumin and horse ferritin

B1: reduced rat peroxiredoxin 6 (Cys47-SH) (enzyme, UniProt O35244 1-224, looked up)
chain: MPGGLLLGDEAPNFEANTTIGHIRFHDFLGDSWGILFSHPRDFTPVCTTELGRAAKLAPEFAKRNVKLIALSIDSVEDHFAWSKDINAYNGAAPTEKLPFPIIDDKDRDLAILLGMLDPAEKDEKGMPVTARVVFIFGPDKKLKLSILYPATTGRNFDEILRVVDSLQLTASNPVATPVDWKKGESVMVLPTLPEEEAKQLFPKGVFTKELPSGKKYLRYTPQP
notes: Peroxiredoxin 6, rat, UniProtKB O35244, 224 amino acids as in the cDNA, without any vector derived residues; Kept reduced by 1 mM DTT in 50 mM Tris-HCl, 100 mM NaCl pH 7.4; also called reduced Prdx6; rPrdx6; source: reduced with 1 mM DTT; not shown: intein tag, C-terminal, cleaved
stoichiometry N: 2

B2: hyperoxidized rat peroxiredoxin 6 (C47 sulfinic acid or sulfonic acid) (enzyme, UniProt O35244 1-224, looked up)
chain: B1 chain
modifications: C47 sulfinic acid or sulfonic acid (Cys47-SO2H or Cys47-SO3H)
notes: Peroxiredoxin 6, rat, UniProtKB O35244, 224 amino acids as in the cDNA, without any vector derived residues; Cys47 hyperoxidized by H2O2; Same purified protein as m1, treated with 500 uM H2O2 in 50 mM Tris-HCl, 100 mM NaCl pH 7.4; also called hyperoxidized Prdx6; oxidized Prdx6; source: incubated with 500 uM H2O2 at room temperature for 30 min to 1 h; not shown: intein tag, C-terminal, cleaved
binding result: binds
